Laboratory results reported in article PMC4760221, “Phosphorylation Regulates the Endocytic Function of the Yeast Dynamin-Related Protein Vps1” (Molecular and Cellular Biology, 2015).
Numbering of substitutions follows the chain as printed. In names and notes the source's numbering stands.

B1: His-tagged Vps1 wild type (natural protein, S. cerevisiae, UniProt P21576 1-704, looked up)
chain: MDEHLISTINKLQDALAPLGGGSQSPIDLPQITVVGSQSSGKSSVLENIVGRDFLPRGTGIVTRRPLVLQLINRRPKKSEHAKVNQTANELIDLNINDDDKKKDESGKHQNEGQSEDNKEEWGEFLHLPGKKFYNFDEIRKEIVKETDKVTGANSGISSVPINLRIYSPHVLTLTLVDLPGLTKVPVGDQPPDIERQIKDMLLKYISKPNAIILSVNAANTDLANSDGLKLAREVDPEGTRTIGVLTKVDLMDQGTDVIDILAGRVIPLRYGYIPVINRGQKDIEHKKTIREALENERKFFENHPSYSSKAHYCGTPYLAKKLNSILLHHIRQTLPEIKAKIEATLKKYQNELINLGPETMDSASSVVLSMITDFSNEYAGILDGEAKELSSQELSGGARISYVFHETFKNGVDSLDPFDQIKDSDIRTIMYNSSGSAPSLFVGTEAFEVLVKQQIRRFEEPSLRLVTLVFDELVRMLKQIISQPKYSRYPALREAISNQFIQFLKDATIPTNEFVVDIIKAEQTYINTAHPDLLKGSQAMVMVEEKLHPRQVAVDPKTGKPLPTQPSSSKAPVMEEKSGFFGGFFSTKNKKKLAALESPPPVLKATGQMTERETMETEVIKLLISSYFSIVKRTIADIIPKALMLKLIVKSKTDIQKVLLEKLYGKQDIEELTKENDITIQRRKECKKMVEILRNASQIVSSV
notes: Vps1, dynamin-related protein of S. cerevisiae; also called recombinant Vps1; wild-type Vps1
B2: His-tagged Vps1 S599V (natural protein, S. cerevisiae, UniProt P21576 1-704, looked up)
chain: B1 chain with S599V
notes: Vps1, dynamin-related protein of S. cerevisiae, with S599V; also called S599V mutant; pKA971
B3: His-tagged Vps1 S599D (natural protein, S. cerevisiae, UniProt P21576 1-704, looked up)
chain: B1 chain with S599D
notes: Vps1, dynamin-related protein of S. cerevisiae, with S599D; also called S599D mutant; pKA972

Target: the molecule itself
Test: negative-stain transmission electron microscopy; purified recombinant Vps1; oligomeric single rings and double-ring structures seen after negative staining

Binding result, binds:
B1, B2, B3
